In IntAct's records for PubMed 20080707:

B1: Protein-glutamine gamma-glutamyltransferase 2 (Homo sapiens), P21980 (parent)
chain: MAEELVLERCDLELETNGRDHHTADLCREKLVVRRGQPFWLTLHFEGRNYEASVDSLTFSVVTGPAPSQEAGTKARFPLRDAVEEGDWTATVVDQQDCTLSLQLTTPANAPIGLYRLSLEASTGYQGSSFVLGHFILLFNAWCPADAVYLDSEEERQEYVLTQQGFIYQGSAKFIKNIPWNFGQFEDGILDICLILLDVNPKFLKNAGRDCSRRSSPVYVGRVVSGMVNCNDDQGVLLGRWDNNYGDGVSPMSWIGSVDILRRWKNHGCQRVKYGQCWVFAAVACTVLRCLGIPTRVVTNYNSAHDQNSNLLIEYFRNEFGEIQGDKSEMIWNFHCWVESWMTRPDLQPGYEGWQALDPTPQEKSEGTYCCGPVPVRAIKEGDLSTKYDAPFVFAEVNADVVDWIQQDDGSVHKSINRSLIVGLKISTKSVGRDEREDITHTYKYPEGSSEEREAFTRANHLNKLAEKEETGMAMRIRVGQSMNMGSDFDVFAHITNNTAEEYVCRLLLCARTVSYNGILGPECGTKYLLNLNLEPFSEKSVPLCILYEKYRDCLTESNLIKVRALLVEPVINSYLLAERDLYLENPEIKIRILGEPKQKRKLVAEVSLQNPLPVALEGCTFTVEGAGLTEEQKTVEIPDPVEAGEEVKVRMDLLPLHMGLHKLVVNFESDKLKAVKGFRNVIIGPA

Variants of: B1
Settings: with KRT19, P08727
KRT19, P08727, sequence (P08727 whole entry): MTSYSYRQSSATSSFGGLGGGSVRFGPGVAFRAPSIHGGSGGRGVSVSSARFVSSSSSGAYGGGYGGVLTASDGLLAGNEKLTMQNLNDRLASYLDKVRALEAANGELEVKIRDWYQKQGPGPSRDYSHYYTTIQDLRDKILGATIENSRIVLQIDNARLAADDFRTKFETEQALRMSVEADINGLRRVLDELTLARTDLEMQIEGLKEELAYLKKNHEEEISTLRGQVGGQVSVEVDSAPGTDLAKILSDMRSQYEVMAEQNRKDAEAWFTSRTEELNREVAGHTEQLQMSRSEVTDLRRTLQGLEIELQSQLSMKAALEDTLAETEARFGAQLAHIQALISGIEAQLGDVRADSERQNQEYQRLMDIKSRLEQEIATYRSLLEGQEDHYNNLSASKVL

Variant | effect of a mutation on the interaction
C277V | disrupting interaction
